According to a protein production outcome set (Wang et al. 2014):
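Further: failed if final PepcDB status was selected cloned or expressed and not failed if soluble or beyond.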

Assay: label from the status in PepcDB records
With “RYENILLPTDGSEGADLAIEWGITLAEIYDATVHTLYSVDTSRFGGVEGSAEIHDALEETGQEALETVHERARDADVSIAGNIASGPAARAILSYSEEHDIDLIAMGTHGRSGLTRYLTGSVTETVVRNAAVPVCCVPMQ” the protein production was “failed”.
With “RYGGDSTMIEMAFNKILIYAFGQFSAYSVWFDNNYLNIVDTIPGYGVFTGVVSKIFDFDRVSGFYDSFTYISNEDYTNVFTLSR” the protein production was “failed”.
For “RYREGLSEALKEPEAKDPGFLERLVALYEEGGEDLLTPPGRVDVRVGEVEGLALVQAGFQKGEWLGELTLIGPLRMRYAEALSVAFSLSQVYTGQHAD”, the protein production was “failed”.
In the case of “SAAETRNVAGAEAPPPQKRYYRQRAHSNPMADHTLRYPVKPEEMDWSELYPEFFAPLTQNQSHDDPKDKKEKRAQAQVEFADIGCGYGGLLVELSPLFPDTLILGLEIRVKVSDYVQDRIRALRAAPAGGFQNIACLRSNAMKHLPNFFYKGQLTKMFFLFPDPHFKRTKHKWRIISPTLLAEYAYVLRVGGLVYTITDVLELHDWMCTHFEEHPLFERVPLEDLSEDPVVGHLGTSTEEGKKVLRNGGKNFPAIFRRIQDPVLQAVTSQTSLPGH”, the protein production is reported as “not failed”.
For “SAAVKDSCGKGEMATGNGRRLHLGIPEAVFVEDVDSFMKQPGNETADTVLKKLDEQYQKYKFMELNLAQKKGRLKGQIPEIKQTLEILKYMQKKKESTNSMETRFLLADNLYCKASVPPTDKVCLWLGANVMLEYDIDEAQALLEKNLSTATKNLDSLEEDLDFLRDQFTTTEVNMARVYNWDVKRRNKDDSTKNKA”, the protein production was “not failed”.
In the case of “SAPPKQSWEQAVDTLRDIGALNAAGQITELGRTLATLPTDPRLGASLLHCGGGAAPTIAALSLDARGDIPRAIAAMSHQQRFTREVARLAGFVP”, the protein production is reported as “failed”.
For “SASKRWSPPRGIHFTVEEGDLGFTLRGNTPVQVHFLDPHCSASLAGAKEGDYIVSIQGVDCKWLTVSEVMKLLKSFGGEEVEMKVVSLLDSTSSMHNK”, the protein production was “not failed”.
In the case of “SAVDCPQHCDSSECKSSPRCERTVLDDCGCCRVCAAGRGETCYRTVSGMDGMKCGPGLRCQPSNGEDPFGEEFGICKDC”, the protein production is reported as “failed”.
In the case of “SAVSARLRTTAEDTSIAKSTQDPIGDTEISVANAKGSSDSNIKNSPGGNSVGQESELEHVPEEDDSGDKEADHEDSETATAKKRKAQPLKNPKKSLKRGRVPAPLNLSDSNTNTHGGNIKDGNLASSNSAHFPPVANQNVKSAPAQVTQHSKFQPRVQYLGKASSRQSIQVNNSSNSYGKPHMPSAGIMSAMNPYMPMNRYIMSPYYNPYGIPPPHMLNKPIMTPYVSYPYPMGPRTSIPYAMQGGNARPYEENEYSASNYRNKRVNDSYDSPLSGTASTGKTRRSEEGSRNSSVGSSANAGPTQQRADLRPADMIPAEEYHFERDALLSANTKARSASTSTSTSTSTNRDRSSWHEAEPNKDEEEGTDLAIEDGAVPTPTFTTFQRTSQPQQQSPSLLQGEIRLSSHIFAFEFPLSSSNVDKKMFMSICNKVWNESKELTKKSSSHHRTGK”, the protein production is reported as “failed”.
With “SDDNKTTGATYDPNQPVTVESFMPVEGKLREKVIVKGSNFGTDKSKVKVYFVDEAAERLSTVIGIDNNTLYCLAPRQLPGGNRIKVIVDGKEVTTDGTFKYEQAQNVSTISGSASKDGNDDGDLASAKFKYMWGIAAVGNNTVLAYQRDDPRVRLISVDDNKVTTVHPGFKGGKPAVTKDKQRVYSIGWEGTHTVYVYMKASGWAPTRIGQLGSTFSGKIGAVALDETEEWLYFVDSNKNFGRFNVKTQEVTLIKQLELSGSLGTNPGPYLIYYFVDSNFYMSDQNLSSVYKITPDGECEWFCGSATQKTVQDGLREEALFAQPNGMTVDEDGNFYIVDGFKGYCLRKLDILDGYVSTVAGQVDVASQIDGTPLEATFNYPYDICYDGEGGYWIAEAWGKAIRKYAVE” the protein production was “not failed”.
In the case of “SDILKDPPSEANSIQSANATTKTSETNHTSRPRLKNVDRSTAQQLAVTVGNVTVIITDFKEK”, the protein production is reported as “failed”.
In the case of “SDISLLLDVANAACHKGHVADARSIYEGVLAVRPGFAPARLGQALSHAVVNEFAEAERIINEEVLAEAPEDTDAKALLGLTYFLAGRDEEARDVLRPVAEGDTPAAYVARG”, the protein production is reported as “failed”.
In the case of “SDLPDSASRVFCGRILSMVNTDDVNAIILAQKNMLDRFEKTNEMLLNFNNLSSARLQQMSERFLHHTRTLVEMKRDLDSIFRRIRTLKGKLARQHPEAFSHIPEASFLEEEDEDPIPPSTTTTIATSEQSTGSCDTSPDTVSPSLSPGFEDLSHVQAGSPAINGRSQTDDEEMTGE”, the protein production is reported as “failed”.
With “SDQTRYSRLANITKIINTKLELREVLQRVTMAISEEIVRCDAVGIYLPEEDGTFRGFAGKPETINGVTLDTQVIDPGIDLLAKEVIETKKTIYIPDTSKDYRPDPRPVDAFKIKSLLALPISFGQELFGLVFLFDYGVPMNLTDSEIQSVEAYVNMAAVAIQNAKNLTQKENLIAEKQLLLNVTRDLSVCSS” the protein production was “failed”.
With “SDSRPAVLDLIGNTPLVRVTRFDTGPCTLYLKLESQNPGGSIKDRIGVAMIEAAERDGRLRPGGTIVEATAGNTGLGLALVGRAKGYRVVLVVPDKMSTEKVLHLRAMGAEVHITRSDVGKGHPEYYQDVAARLAQDIPGAFFADQFNNPANPLAHECGTGPELWAQTGHDLDAIVVGVGSSGTLTGLTRFFQKVQPELEMVLADPEGSIMAEYSRSGTLGTPGSWAVEGIGEDFVPAIADLSSVRHAYSISDEESFAMARELLRVEGIPGGSSTGTLLAAALRFCREQKEPKRVVSFVCDTGTRYLSKIYNDQWMTDQGLLQRKHYGDLRDIIARRFEEGRVISVGPDDTLLTAFQRMRLADVSQLPVLDDGKLVGVIDESDILLGVHADAPRFRDAVSSAMNAAPETLAPGASLAQLQAVLDRGLVAIVADASGFHGLITRFDLL” the protein production was “failed”.
In the case of “SEDPVFTFGLIADVQYADIEDGENYLRTRRRYYRGSADLLRDAVLQWRRERVQCVVQLGDIIDGHNRRRDASDRALDTVMAELDACSVDVHHVWGNHEFYNFSRPSLLSSRLNSAQRTGTDTGSDLIGDDIYAYEFSPAPNFRFVLLDAYDLSVIGREEESEKHTHSWRILTQHNHNLQDLNLPPVSVGLEQRFVKFNGGFSEQQLQWLDAVLTLSDHKQERVLIFSHLPVHPCAADPICLAWNHEAVLSVLRSHQSVLCFIAGHDHDGGRCTDSSGAQHITLEGVIETPPHSHAFATAYLYEDRMVMKGRGRVEDLTITYS”, the protein production is reported as “not failed”.
For “SEEDDEVVAMIKELLDTRIRPTVQEDGGDVIYRGFEDGIVRLKLQGSCTSCPSSIITLKSGIQNMLQFYIPEVEGVEQV”, the protein production was “not failed”.
For “SEEPPVREEEEEEGEEDEERDEVGPEGALGKSPFQLTAEDVYDISYLLGRELMALGSDPRVTQLQFKVVRVLEMLEALVNEGSLALEELKMERDHLRKEVEGLRRQSPPASGEVNLGPNKMVVDLTDPNRPRFTLQELRDVLQERNKLKSQLLVVQEELQCYKSGLIPPREGPGGRREKDAVVTSAKNAGRNKEEKTIIKKLFFFRSGKQT”, the protein production was “failed”.
With “SEPGEELEEEGSPGGREDGFTAEHLAAEAMAADMDPWLVFDARTTPATELDAWLAKYPPSQVTRYGDPGSPNSEPVGWIAVYGQGYSPNSGDVQGLQAAWEALQTSGRPITPGTLRQLAITHHVLSGKWLMHLAPGFKLDHAWAGIARAVVEGRLQVAKVSPRAKEGGRQVICVYTDDFTDRLGVLEADSAIRAAGIKCLLTYKPDVYTYLGIYRANRWHLCPTLYESRFQLGGSARGSRVLDRANNVELT” the protein production was “not failed”.
For “SESICNSLNSKLEPTLENLENLDVSAFQAPEDLLDGCRIYLCGFSGRKLDKLRRLINSGGGVRFNQLNEDVTHVIVGDYDDELKQFWNKSAHRPHVVGAKWLLECFSKGYMLSEEPYIH”, the protein production was “not failed”.
With “SESKIACHHTVHGFEQRRGLHSRNEKAMEYVAKGWSAIKEVERVIDYCELNDRRLIPLLRGAKENFELALEADNLNTHARYWLSKLHLKYHVPGACKAVGAALLVEAADMGNADAQYELGCRLRVENDHVQSDQQAFHYIENAVDQLHPGALYLLGIVYLTGDCVKQDVDSAIWCFHRASEKGHAGAAIAYGSLLLRGVQVPESLTKLNVVGVSPPKRARKNLENPEMNPLEMAKEQFQIAARAGCDLGLKWLQRVEQEEKLLMREQDNECAYV” the protein production was “failed”.
With “SESQDIKALQKELEQFAKLLKQKRITLGYTQADVGLTLGVLFGKVFSQTTICRFEALQLSFKNMCKLRPLLQKWVEEADNNENLQEICKAETLVQARKRKRTSIENRVRGNLENLFLQCPKPTLQQISHIAQQLGLEKDVVRVWFCNRRQKGKRSSSDYAQ” the protein production was “not failed”.
In the case of “SETQSFVVSVAGSDRVGIVHDFSWALKNISANVESSRMACLGGDFAMIVLVSLNAKDGKLIQSALESALPGFQISTRRASSVAERHVSPDTREYELYVEGPDSEGIVEAVTAVLAKKGANIVELETETLPAPFAGFTLFRMGSRVAFPFPLYQEVVTALSRVEEEFGVDIDLEEVVEGEDSEEDDDSPNSPVGRH”, the protein production is reported as “not failed”.
For “SGCGGSRADAIEPRYYESWTRETESTWLTYTDSDAPPSAAAPDSGPEAGGLHSGMLEDGLPSNGVPRSTAPGGIPNPEKKTNCETQCPNPQSLSSGPLTQKQNGLQTTEAKRDAKRMPAKEVTINVTDSIQQMDRSRRITKNCVN”, the protein production was “failed”.
For “SGCIQSITCKARIRRENIVVYDVCATIDQCPTRIEETSPIVLRYKTPYFKASARVVMPPIPRHETWVVGWIQACNQMEFFNTYSDLGMSSWELPDLREGRVKAISDSDGVSYPWYGNTTETVTLVGPTNKISRFSVSMNDNFYPSVTWAVPVSDSNVPLLTRIKRDQSFTTWLVAMNTTTKEKIILQTIKWRMRVDIEVDPLQLLGQRARLVGRTQQEQPRILSRMEPIPPNALVKPNANDAQVLMWRPKRGPPLVVIPPK”, the protein production was “not failed”.
In the case of “SGGRRSSWIKNWTLWKHFKDYFPIHLIKTQDLDPSHNYIFGFHPHGIMAVGAFGNFSVNYSDFKDLFPGFTSYLHVLPLWFWCPVFREYVMSVGLVSVSKKSVSYMVSKEGGGNISVIVLGGAKESLDAHPGKFTLFIRQRKGFVKIALTHGASLVPVVSFGENELFKQTDNPEGSWIRTVQNKLQKIMGFALPLFHARGVFQYNFGLMTYRKAIHTVVGRPIPVRQTLNPTQEQIEELHQTYMEELRKLFEEHKGKYGIPEHETLVLK”, the protein production is reported as “not failed”.
With “SGTFDSQCHECFESKERWYEIGPTDLLERKGSLTLRSHHKKYSEPVLVYSWHRNREAFPKDYDIESLETVKNLCMSTYKRFGSDSPRWMSEAREQMAQVLVNKDLVEKKKTGLLDEETLCPGILERDPELPPTGFRDVPMESPPDPRKPCFSTTYSEDFTPQYEYPPPACPRREEYSIVHRKCRSQFTDLNGSKRLGINTWHDESGIYANSEAKQKLYALARNPIVPF” the protein production was “failed”.
For “SIEVRGKIKLGLLPETYEHLQPILFEFQDQYPQVELDIRNINNGFIDMFQQGLDIALHGGMLFDSDIVARKILTLDRCVVASPNYLQTHGTPATLEELSDHQCICFRWPNGNVDNLWHFQEQNVALKPKLISNNIGFIK”, the protein production was “failed”.
With “SKEDTEITIQKIMDAVVDQLLRLGYDKMSYTTLSQQTGVSRTGISHHFPKKTDFTAALDGRIFKMFIEHLEFEKGLDAFSQSWIKALEDSEFLAILRLLFHHIVTSESAHEFAANGIDRLYKMVESQFGSGGDKELEWLIGRSLIQ” the protein production was “failed”.
For “SKGRPQIDSSKATDKINPMDFTFVEINEAVKLVEMGVATPQDIDTAIKLGLNRPFGPFELAKQFGAEQIAKRLEELAKQFGKKIFEPAKTLKEGKLEELLKAGKAE”, the protein production was “not failed”.
